Reference: patent publication US20120201835A1 (MERCK, published 2012)
Residue numbers refer to the chain shown, from its start.

B1: RH2-18 antibody (antibody, human IgG2, lambda, V domains shown)
VH: EVQLVQSGAEVKKPGASVKVSCKASGYTFTDYYIHWVRQAPGQGLEWMGWIHSNSGATTYAQKFQARVTMSRDTSSSTAYMELSRLESDDTAMYFCSREDYWGQGTLVTVSS
VL: QSVLTQPPSVSGAPGQRVTISCTGSSSNIGAGYDVHWYQQLPGTAPKLLIYGYSNRPSGVPDRFSGSKSGASASLAITGLRPDDEADYYCQSYDNSLSSYVFGGGTQLTVLS
notes: also called anti-Dkk-1 antibody RH2-18
B2: RH2-59 antibody (antibody, human IgG2, lambda, V domains shown)
VH: B1 VH with Q104R, L107M
VL: QAVLTQPSSVSGAPGQRVTISCTGSSSNIGAGYDVHWYQQLPGTAPKLLIYANTNRPSGIPDRFSGSKSGTSASLAITGLQTEDEADYYCQSYDTSPSASYVFGTGTKLTVLG
notes: IgG converted from the scFv, IgG2M4 heavy chain constant region
B3: RH2-18 scFv (phage clone) (scFv, V domains shown)
VH: EVQLVQSGAEVKKPGASVKVSCKASGYTFTDYYIHWVRQAPGQGLEWMGWIHSNSGATTYAQKFQARVTMSRDTSSSTAYMELSRLESDDTAMYFCSREDYWGQGTLVTV
VL: B1 VL
notes: Single chain Fv from the CAT phage display library (CS)
B4: RH2-80 scFv (phage clone) (scFv, V domains shown)
VH: B1 VH with Q104K, L107M
VL: QAVLTQPSSVSGAPGQRVSISCTGSSSNIGAAYDVHWYQQLPGTAPRLLIYVNNNRPSGVPDRFSGSKSGTSASLVIAGLQAEDEADYYCQSYDNSLNAYVFGTGTKLTVLG
notes: as for B3
B5: RH2-80 antibody (antibody, human IgG2, lambda, V domains shown)
VH: B1 VH with Q104K, L107M
VL: B4 VL
notes: as for B2
B6: RH2-59 scFv (phage clone) (scFv, V domains shown)
VH: B1 VH with Q104R, L107M
VL: B2 VL
notes: as for B3
B7: RH1-10 antibody (antibody, human IgG2, lambda, V domains shown)
VH: QVQLLQSAAEVKKPGESLKISCKGSGYDFPGYYLHWVRQAPGQGLEWMGWINANSGATNYAQNFQGRVTMTRDTSISAAYMELSSLRSDDTAVYYCTREDHWGRGTTVTVSS
VL: QSVLTQPPSASGAPGQRVTISCTGSSSNIGAGYDVHWYQQLPGAAPKLLIYGNSNRPSGVPDRFSGSKSGTSASLAITGLQAEDEADYYCQSYDSSLSGYVFGTGTKVTVLG
notes: as for B2
B8: RH1-10 scFv (phage clone) (scFv, V domains shown)
VH: B7 VH
VL: B7 VL
notes: Single chain Fv from the CAT phage display library (BMV)

Assays:
[1] = biological target: Rhesus monkey Dkk-1 (Rhesus monkey); experiment: SPR, Biacore 3000, several independent runs with different antibody lots
[2] = biological target: T1, Human Dkk-1 (human, UniProt O94907 32-266); experiment: as above
T1 sequence: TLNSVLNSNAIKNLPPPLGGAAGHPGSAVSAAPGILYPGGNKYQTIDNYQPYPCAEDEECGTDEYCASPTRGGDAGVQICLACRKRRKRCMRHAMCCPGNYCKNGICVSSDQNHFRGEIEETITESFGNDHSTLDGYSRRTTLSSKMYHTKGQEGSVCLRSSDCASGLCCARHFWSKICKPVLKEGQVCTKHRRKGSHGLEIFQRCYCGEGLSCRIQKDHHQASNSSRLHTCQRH
Protocol: (§1) The affinity of the RH2-18 antibody for human Dkk-1 and Rhesus Dkk-1 was determined by measuring RH2-18 binding kinetics by surface plasmon resonance in a Biacore 3000 instrument according to manufacturer's instructions (Biacore, Inc., Piscataway, N.J.). Several independent affinity studies were performed using different RH2-18 antibody lots against human Dkk-1 and rhesus Dkk-1.

[3] = biological target: Rhesus monkey Dkk-1 (Rhesus monkey); experiment: TRF cell assay, inhibition of Eu-Dkk-1 binding to HEK293hLrp5 cells
[4] = biological target: T2, Rhesus monkey Dkk-2 (chimeric protein: N-terminal region of rhesus Dkk-1 fused to the C-terminal region of … (Rhesus monkey)); experiment: dot blot of native recombinant protein (0 to 100 ng per spot) probed with RH2-18
T2 chain: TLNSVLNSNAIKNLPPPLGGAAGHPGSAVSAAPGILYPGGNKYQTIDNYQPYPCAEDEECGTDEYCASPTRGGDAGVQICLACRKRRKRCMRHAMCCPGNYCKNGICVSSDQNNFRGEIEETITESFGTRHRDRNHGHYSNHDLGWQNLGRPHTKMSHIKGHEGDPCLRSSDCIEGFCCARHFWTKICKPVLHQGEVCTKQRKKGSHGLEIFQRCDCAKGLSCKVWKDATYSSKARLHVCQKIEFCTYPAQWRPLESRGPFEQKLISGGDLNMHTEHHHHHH
Protocol: Native recombinant rhesus monkey Dkk-1, Dkk-2, and cynomolgus monkey Dkk-4 proteins (0.1 ng to 100 ng) were used. A non-related recombinant protein was loaded as a control for non-specific assay signal (HIS protein) and probed with the RH2-18 antibodies.
The Dkk-1 amino acid sequence is closely related to that of Dkk-2 and Dkk-4 with 50% and 45% identity at the amino acid-level, respectively. Cross-reactivity of RH2-18 against rhesus monkey Dkk-2 (using a chimeric protein consisting of the N-terminal region of the rhesus Dkk-1 fused to the C-terminal region of the rhesus Dkk-2 with myc and His-6 tags at the C-terminal end of the Dkk-2 C-terminal region; see SEQ ID NO:71) and cynomolgus monkey Dkk-4 (SEQ ID NO:70) was tested by dot-blot analysis using recombinant proteins. Native recombinant rhesus monkey Dkk-1, Dkk-2, and cynomolgus monkey Dkk-4 proteins (0.1 ng to 100 ng) were used. A non-related recombinant protein was loaded as a control for non-specific assay signal (HIS protein). The dot blots were probed with RH2-18. […] Selectivity of the antibody towards Dkk-1 was minimally 100-fold.

[5] = biological target: Rhesus monkey Dkk-1 (Rhesus monkey); experiment: TRF cell assay, inhibition of Eu-Dkk-1 binding to HEK293hLrp5 cells, extended dose range
[6] = biological target: Rhesus monkey Dkk-1 (Rhesus monkey); experiment: cell-based or functional assay
[7] = biological target: Rhesus monkey Dkk-1 (Rhesus monkey); experiment: TRF cell-based blocking assay: Eu-labeled rhesus Dkk-1 binding to human LRP5 on HEK293hLrp5 cells, RH2-18 titrated over an extended range; no unit is printed beside the number or on the log axis, M follows from 4.75 nM in paragraph 132
[8] = biological target: T1, Human Dkk-1; experiment: SPR, Biacore 3000, mean of several independent runs
Protocol: as §1

[9] = biological target: T3, Mouse Dkk-1 (mouse, UniProt O54908 32-272); experiment: TRF cell assay, inhibition of Eu-labeled mouse Dkk-1 binding to cells
T3 construct: Recombinant; also called MsDkk-1; murine Dkk-1
T3 sequence (looked up): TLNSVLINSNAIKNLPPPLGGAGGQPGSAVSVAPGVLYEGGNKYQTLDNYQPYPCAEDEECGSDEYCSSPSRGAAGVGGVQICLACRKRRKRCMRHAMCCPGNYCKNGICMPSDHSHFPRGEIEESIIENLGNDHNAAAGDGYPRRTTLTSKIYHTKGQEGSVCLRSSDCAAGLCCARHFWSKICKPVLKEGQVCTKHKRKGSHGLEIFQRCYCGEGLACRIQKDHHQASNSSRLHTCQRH
Protocol: For the assay, the anti-Dkk-1 antibodies were added to HEK cells overexpressing LRP5 (HEK293hLrp5 cells) at final concentrations of 0.2, 0.6, 2.0, 6.0, and 20 nM. Anti-IL3 Receptor monoclonal antibody (8B4) was used as a negative control. Eu-labeled Dkk-1 (100 pM) was incubated with the cells in absence or presence of the antibodies for 20 minutes. Dkk-1 bound in solution by the antibodies and thus blocked from binding to the cell surface of the HEK293hLrp5 cells was removed by 4× wash steps and Eu-labeled Dkk-1 bound to cell surface was measured by TRF signal. Eu-labeled Dkk-1 protein binding to HEK293 cells overexpressing human LRP5 or LRP6 was monitored by measuring the time-resolved fluorescence of bound ligand.

[10] = biological target: Rhesus monkey Dkk-1 (Rhesus monkey); experiment: SPR, Biacore 3000, mean of several independent runs
[11] = biological target: Rhesus monkey Dkk-1 (Rhesus monkey); experiment: dot blot of native recombinant proteins, 0.1 ng to 100 ng
[12] = biological target: T3, Mouse Dkk-1; experiment: phage ELISA (+), scFv-phage on mouse Dkk-1
[13] = biological target: Rhesus monkey Dkk-1 (Rhesus monkey); experiment: TRF cell assay: inhibition of Eu-Dkk-1 binding to HEK293 cells overexpressing LRP5 or LRP6, scFv

Binder | pTOPflash/Lef-1 luciferase reporter in HEK293hLrp5 cells, Wnt3A plus 50 nM rhesus Dkk-1 [6] | binding result [9] | binding result [12] | % inhibition of Dkk-1 [13] | also measured
B1 | > 30 nM | binds |  |  | Kd [1]: 0.771 to 0.934 nM; Kd [2]: 0.202 to 0.269 nM; inhibitory activity (concentration) [3]: 4.75 nM; binding result [4]: no binding (tested: 100 ng); effective dose [5]: 5 nM; endogenous ALP activity of C3H10T1/2 cells (osteoblastic differentiation), Wnt3A plus recombinant Dkk-1, 3 days [6]: 100 nM; EC50 [7]: 4.75 nM; Kd [8]: 0.251 nM; Kd [10]: 0.858 nM; detection limit for binding [11]: 1 ng; selectivity towards Dkk-1 (fold, against Dkk-2 and Dkk-4) [11]: > 100 fold
B2 |  | binds |  |  | 
B3 |  |  | binds | 74% | 
B4 |  |  | binds | 62% | 
B5 | > 30 nM | binds |  |  | 
B6 |  |  | binds | 61% | 
B7 | > 30 nM | binds |  |  | 
B8 |  |  | binds | 89% | 
